“And” between values parts separate entries of the source, which are not always exact repeats. Equal entries are not always repeated.
Molecular target: chitin binding domain-intein fusion of the ToxR periplasmic domain (CBDI-ToxRp) (V. cholerae El Tor N16961), P15795
Assay: pull-down

B1: ToxS periplasmic domain (ToxSp), purified, cleaved from the chitin binding domain-intein tag, P24003 25-173 (domain or fragment)
chain: SDFKLEQVLTSREWQSKMVSLIKTNSNRPAMGPLSRVDVTSNVKYLPNGTYLRVSIVKLFSDDNSAESVINISEFGEWDISDNYLLVTPVEFKDISSNQSKDFTDEQLQLITQLFKMDAQQSRRVDIVNERTILFTSLSHGSTVLFSNS
modifications: not checked
  percent of input pulled down: 6% and 9%
